US20120207760A1

Experiments:
Settings in all cases: remark: other sources report otherwise
[1] = biological target: recombinant soluble homotrimeric HA of A/duck/Yangzhou/02/05 (H8N4) (Influenza A virus A/duck/Yangzhou/02/2005 (H8N4)); assay: microarray, BCC supernatant IgG, trimeric HA
[2] = biological target: recombinant soluble homotrimeric HA of A/Egypt/3300-NAMRU3/08 (H5N1) (Influenza A virus A/Egypt/3300-NAMRU3/08 (H5N1)); assay: microarray, BCC supernatant IgG, trimeric HA
[3] = biological target: recombinant soluble homotrimeric HA of A/northern shoveler/California/HKWF115/07 (Influenza A virus A/northern shoveler/California/HKWF115/2007); assay: microarray, BCC supernatant IgG, trimeric HA
[4] = biological target: recombinant soluble homotrimeric HA of A/Hong Kong/2108/03 (H9N2) (Influenza A virus A/Hong Kong/2108/03 (H9N2)); assay: microarray, BCC supernatant IgG, trimeric HA
[5] = biological target: recombinant soluble homotrimeric HA of A/Solomon Islands/3/06 (H1N1) (Influenza A virus A/Solomon Islands/3/06 (H1N1)); assay: microarray, BCC supernatant IgG, trimeric HA
[6] = biological target: recombinant soluble homotrimeric HA of A/Vietnam/1203/04 (H5N1) (Influenza A virus A/Vietnam/1203/04 (H5N1)); assay: microarray, BCC supernatant IgG, trimeric HA
[7] = biological target: recombinant soluble homotrimeric HA of A/Wisconsin/67/05 (H3N2) (Influenza A virus A/Wisconsin/67/05 (H3N2)); assay: microarray, BCC supernatant IgG, trimeric HA
[8] = biological target: recombinant soluble homotrimeric HA of A/California/4/09 (H1N1) (Influenza A virus A/California/4/09 (H1N1)); assay: microarray, BCC supernatant IgG, trimeric HA
[9] = biological target: recombinant soluble homotrimeric HA of A/swine/Ontario/01911-2/99 (H4N6) (Influenza A virus A/swine/Ontario/01911-2/99 (H4N6)); assay: microarray, BCC supernatant IgG, trimeric HA
[10] = biological target: recombinant soluble homotrimeric HA of A/Indonesia/5/05 (H5N1) (Influenza A virus A/Indonesia/5/05 (H5N1)); assay: microarray, BCC supernatant IgG, trimeric HA
[11] = biological target: recombinant soluble homotrimeric HA of A/chicken/Vietnam/NCVD-016/08 (H5N1) (Influenza A virus A/chicken/Vietnam/NCVD-016/08 (H5N1)); assay: microarray, BCC supernatant IgG, trimeric HA
[12] = biological target: recombinant soluble homotrimeric HA of A/Anhui/1/05 (H5N1) (Influenza A virus A/Anhui/1/05 (H5N1)); assay: microarray, BCC supernatant IgG, trimeric HA
[13] = biological target: recombinant soluble homotrimeric HA of A/Japan/305/57 (H2N2) (Influenza A virus A/Japan/305/57 (H2N2)); assay: microarray, BCC supernatant IgG, trimeric HA
[14] = biological target: T1, recombinant homotrimeric HA, A/South Carolina/1/18 H1N1 (Influenza A virus A/South Carolina/1/18 (H1N1)); assay: trimeric HA microarray, transfection set 3
[15] = biological target: recombinant homotrimeric HA, A/duck/Yangzhou/02/05 H8N4 (Influenza A virus A/duck/Yangzhou/02/2005 (H8N4)); assay: trimeric HA microarray, transfection set 3
[16] = biological target: T2, recombinant homotrimeric HA, A/Vietnam/1203/04 H5N1 (Influenza A virus A/Vietnam/1203/04 (H5N1)); assay: trimeric HA microarray, transfection set 3
[17] = biological target: T3, recombinant homotrimeric HA, A/Wisconsin/67/05 H3N2 (Influenza A virus A/Wisconsin/67/05 (H3N2)); assay: trimeric HA microarray, transfection set 3
[18] = biological target: recombinant homotrimeric HA, A/Hong Kong/2108/03 H9N2 (Influenza A virus A/Hong Kong/2108/03 (H9N2)); assay: trimeric HA microarray, transfection set 3
[19] = biological target: recombinant homotrimeric HA, A/Egypt/3300-NAMRU3/08 H5N1 (Influenza A virus A/Egypt/3300-NAMRU3/08 (H5N1)); assay: trimeric HA microarray, transfection set 3
[20] = biological target: recombinant homotrimeric HA, A/chicken/Vietnam/NCVD-016/08 H5N1 (Influenza A virus A/chicken/Vietnam/NCVD-016/08 (H5N1)); assay: trimeric HA microarray, transfection set 3
[21] = biological target: recombinant homotrimeric HA, A/common magpie/Hong Kong/5052/07 H5N1 (Influenza A virus A/common magpie/Hong Kong/5052/07 (H5N1)); assay: trimeric HA microarray, transfection set 3
[22] = biological target: T4, recombinant homotrimeric HA, A/Indonesia/5/05 H5N1 (Influenza A virus A/Indonesia/5/05 (H5N1)); assay: trimeric HA microarray, transfection set 3
[23] = biological target: T5, recombinant homotrimeric HA, A/Japan/305/57 H2N2 (Influenza A virus A/Japan/305/57 (H2N2)); assay: trimeric HA microarray, transfection set 3
[24] = biological target: recombinant homotrimeric HA, A/Hong Kong/1073/99 H9N2 (Influenza A virus A/Hong Kong/1073/99 (H9N2)); assay: trimeric HA microarray, transfection set 3
[25] = biological target: recombinant homotrimeric HA, A/swine/Ontario/01911-2/99 H4N6 (Influenza A virus A/swine/Ontario/01911-2/99 (H4N6)); assay: trimeric HA microarray, transfection set 3
[26] = biological target: T6, recombinant homotrimeric HA, A/Solomon Islands/3/06 H1N1 (Influenza A virus A/Solomon Islands/3/06 (H1N1)); assay: trimeric HA microarray, transfection set 3
[27] = biological target: recombinant homotrimeric HA, A/northern shoveler/California/HKWF115/07 (Influenza A virus A/northern shoveler/California/HKWF115/2007 (H6N1)); assay: trimeric HA microarray, transfection set 3
[28] = biological target: T7, recombinant homotrimeric HA, A/California/4/09 H1N1 (Influenza A virus A/California/4/09 (H1N1)); assay: trimeric HA microarray, transfection set 3
[29] = biological target: recombinant soluble homotrimeric HA of A/Netherlands/219/03 (H7N7) (Influenza A virus A/Netherlands/219/03 (H7N7)); assay: microarray, BCC supernatant IgG, trimeric HA
[30] = biological target: T1, recombinant homotrimeric HA, A/South …; assay: trimeric HA microarray, transfection set 5
[31] = biological target: T3, recombinant homotrimeric HA, …; assay: trimeric HA microarray, transfection set 5
[32] = biological target: T4, recombinant homotrimeric HA, …; assay: trimeric HA microarray, transfection set 5
[33] = biological target: T5, recombinant homotrimeric HA, …; assay: trimeric HA microarray, transfection set 5
[34] = biological target: T6, recombinant homotrimeric HA, A/Solomon …; assay: trimeric HA microarray, transfection set 5
[35] = biological target: T7, recombinant homotrimeric HA, …; assay: trimeric HA microarray, transfection set 5
[36] = biological target: recombinant soluble homotrimeric HA of A/Hong Kong/156/97 - H5N1 (Influenza A virus A/Hong Kong/156/97 (H5N1)); assay: micro-array; captured IgG, V5-tagged trimeric HA
[37] = biological target: recombinant soluble homotrimeric HA of A/Anhui/1/05 - H5N1 (Influenza A virus A/Anhui/1/2005 (H5N1)); assay: micro-array; captured IgG, V5-tagged trimeric HA
[38] = biological target: recombinant soluble homotrimeric HA of A/northern shoveler/California/HKWF115/2007 - H6N1 (Influenza A virus A/northern shoveler/California/HKWF115/2007 (H6N1)); assay: micro-array; captured IgG, V5-tagged trimeric HA
[39] = biological target: hemagglutinin (HA) of influenza A/Japan/305/57 H2N2 (Influenza A virus A/Japan/305/1957 (H2N2)), P03451; assay: ELISA, inactivated whole virions coated; transfection supernatant set 5
[40] = biological target: T2, recombinant homotrimeric HA, …; assay: trimeric HA microarray, transfection set 5

B1: TCN-533 (5256_A17) (antibody, V domains shown)
VH: QVQLVQSGADVKKPGSSVTVSCKASGGSFSNYGINWVRQAPGQGLEWMGGIIPLINAPNYAPKFQGRVTITADMFSNIVSLQLTSLRTDDTAVYYCARRKMTTAIDYWGQGTLVTVSS
VL: QPVLSQPPSASASLGASVTLTCTLSSGFDNYQVAWYQQRPGKGPRFVMRVGNGGNVASKGDGIPDRFSVSGSGLNRYLTIKNIQEDDESDYYCGADHGSGNNFVSPYVFGGGTKLTVL
Binder B1 has a Trimeric HA Binding: RLU [1] of 24700 RLU, a Trimeric HA Binding: RLU [2] of 34300 RLU and a Trimeric HA Binding: RLU [3] of 41400 RLU. The Trimeric HA Binding: RLU [4] was 172 RLU, the Trimeric HA Binding: RLU [5] was 39200 RLU and the Trimeric HA Binding: RLU [6] was 5680 RLU. The Trimeric HA Binding: RLU [7] was 13800 RLU, the Trimeric HA Binding: RLU [8] was 29300 RLU and the Trimeric HA Binding: RLU [9] was 1580 RLU. For the same binder, the Trimeric HA Binding: RLU [10] was 44100 RLU, the Trimeric HA Binding: RLU [11] was 47700 RLU and the Trimeric HA Binding: RLU [12] was 8060 RLU. For the same binder, the Trimeric HA Binding: RLU [13] was 10800 RLU, the Trimeric HA Binding RLU [14] was 16400 RLU and the Trimeric HA Binding RLU [15] was 711 RLU. The Trimeric HA Binding RLU [16] was 11700 RLU, the Trimeric HA Binding RLU [17] was 16100 RLU and the Trimeric HA Binding RLU [18] was 33 RLU. For the same binder, the Trimeric HA Binding RLU [19] was 18600 RLU, the Trimeric HA Binding RLU [20] was 24600 RLU and the Trimeric HA Binding RLU [21] was 25200 RLU. For the same binder, the Trimeric HA Binding RLU [22] was 28300 RLU, the Trimeric HA Binding RLU [23] was 18600 RLU and the Trimeric HA Binding RLU [24] was 23800 RLU. The Trimeric HA Binding RLU [25] was 180 RLU, the Trimeric HA Binding RLU [26] was 15500 RLU and the Trimeric HA Binding RLU [27] was 7810 RLU. It also gave a Trimeric HA Binding RLU [28] of 6880 RLU.

B2: TCN-538 (3206_O17) (antibody, V domains shown)
VH: QITLKESGPTLVKPTQTLTLTCVFSGFSLSITGVRVGWIRQPPGKALEWLALISWDDEKHYSPSLQSRLTITKDTSKNQVVLTMTNLDPVDTATYYCARSTDRGHVLRYFGWMLPGDAFDVWGQGTMVTVSS
VL: DIVMTQSPDFLPVSLGERATINCKSSQRVLYSSNNKNYLAWYQLKPGQPPKLIIYWASTRESGVPDRFSGSGSGTEFTLTISSLQAEDVAVYYCQQYYSRPYTFGQGTKLEIK
Binder B2 has a Trimeric HA Binding: RLU [29] of 6530 RLU, a Trimeric HA Binding RLU [30] of 8430 RLU and a Trimeric HA Binding RLU [31] of 2070 RLU. It also gave a Trimeric HA Binding RLU [32] of 13700 RLU, a Trimeric HA Binding RLU [33] of 6620 RLU and a Trimeric HA Binding RLU [34] of 1960 RLU. It also gave a Trimeric HA Binding RLU [35] of 16000 RLU.

B3: TCN-545 (5082_I15) (antibody, V domains shown)
VH: QVQLQQWGAGLLKPSETLSLSCAVFGGSFSDYYWTWIRQPPGKGLEWIGEIKHSGRTNYNPSLESRVTISVDTSKNQFSLKLSSVTAADTAIYYCARGTDPDTEGYCRSGSCSAFDFWGQGTLVTVSS
VL: EIVLTQSPGTLSLSPGERATLSCRASHFVNYRSLAWYQQTPGQVPRLLIYGASTRATGIPDRFSGSGSGTDFTLTISRLEPEDFAVYFCQQYGGSPRYTFGQGTRLEIK
B3 gave a Trimeric HA Binding: RLU [3] of 1170 RLU, a Trimeric HA Binding: RLU [36] of 1560 RLU and a Trimeric HA Binding: RLU [37] of 4880 RLU. For the same binder, the Trimeric HA Binding: RLU [38] was 2320 RLU, the Trimeric HA Binding RLU [30] was 900 RLU and the Trimeric HA Binding RLU [31] was 32000 RLU. The Trimeric HA Binding RLU [32] was 5270 RLU, the Trimeric HA Binding RLU [33] was 1360 RLU and the Trimeric HA Binding RLU [35] was 818 RLU.

B4: TCN-551 (5243_D01) (antibody, V domains shown)
VH: EVQLVQSGSEVKKPGESLKISCKGSGYSFSNYWIGWVRHMPGKGLEWMGIIYPGDSDTRYSPSFQGQVTMSADKSSSTVYLQWSSLKASDTAIYYCARRGGHSFGYGSGGDTHSEFDSWGQGTLVTVSS
VL: QSVLTQSPSVSAAPGQKVTISCSGSDSNIGDYFVCWYQHLPGKPPQLLIYENNKRPSGIPDRFSGSKSGTSATLGITGIQTGDEADYYCATWDGSLSAWVFGGGTKLTVL
In the case of B4, the Trimeric HA Binding: RLU [3] is reported as 52500 RLU, the Trimeric HA Binding: RLU [11] is reported as 42300 RLU and the OD450 [39] is reported as 0.1 OD450. The Trimeric HA Binding RLU [30] was 4340 RLU, the Trimeric HA Binding RLU [40] was 41900 RLU and the Trimeric HA Binding RLU [31] was 936 RLU. For the same binder, the Trimeric HA Binding RLU [33] was 25200 RLU, the Trimeric HA Binding RLU [34] was 43500 RLU and the Trimeric HA Binding RLU [35] was 46100 RLU.
